The text below walks through data of article PMC3847938, “Biochemical and kinetic characterisation of a novel xylooligosaccharide-upregulated GH43 β-D-xylosidase/α-L-arabinofuranosidase (BXA43) from the probiotic Bifidobacterium animalis subsp. lactis BB-12” (AMB Express, 2013).

Data set [1] addresses T1, BXA43 (Bifidobacterium animalis, UniProt B8DTK7).
T1 construct: gene xynB; full-length ORF 541 residues, C-terminal His-tag, pET24(+), E. coli BL21(DE3); theoretical mass 61,774 Da, about 62 kDa on SDS-PAGE
T1 sequence (B8DTK7 1-541): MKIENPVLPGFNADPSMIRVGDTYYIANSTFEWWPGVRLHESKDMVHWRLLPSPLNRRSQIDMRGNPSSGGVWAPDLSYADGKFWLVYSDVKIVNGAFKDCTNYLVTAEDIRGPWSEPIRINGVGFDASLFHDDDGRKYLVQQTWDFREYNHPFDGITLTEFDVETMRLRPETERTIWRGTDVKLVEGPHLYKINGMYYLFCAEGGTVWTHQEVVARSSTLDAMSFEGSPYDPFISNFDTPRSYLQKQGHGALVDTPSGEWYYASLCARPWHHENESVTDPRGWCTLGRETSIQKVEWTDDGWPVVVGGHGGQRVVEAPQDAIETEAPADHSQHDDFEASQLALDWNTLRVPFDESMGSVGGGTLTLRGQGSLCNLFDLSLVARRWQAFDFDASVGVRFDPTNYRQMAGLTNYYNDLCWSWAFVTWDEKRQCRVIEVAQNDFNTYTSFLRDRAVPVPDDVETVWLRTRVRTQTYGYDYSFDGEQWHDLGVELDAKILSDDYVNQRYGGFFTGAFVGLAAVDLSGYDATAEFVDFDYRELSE
Briefly: p-nitrophenol release at […] nm, initial rates, fit with substrate inhibition. The class given is biochemical. To be noted: 50 mM Na-acetate pH 5.2, 40 °C; substrate inhibition by pNPX itself (uncompetitive), second site.

Substrate in data set [2]: O=[N+]([O-])c1ccc(O[C@@H]2OC[C@@H](O)[C@H](O)[C@H]2O)cc1
Briefly: purified protein. It is filed as biochemical, Bifidobacterium animalis. The note with it: 50 mM Na-acetate pH 5.2, 40 °C, 0.25–80 mM pNPX, 7.8 nM enzyme, error printed as ± 4.6.

For `O=[N+]([O-])c1ccc(O[C@@H]2OC[C@@H](O)[C@H](O)[C@H]2O)cc1` [para-nitrophenyl-β-D-xylopyranoside], in data set [1], the Ki amounted to 29.6 ± 8.5 mM.

B1: BXA43 (Bifidobacterium animalis subsp. lactis AD011) (protein)
chain: MKIENPVLPGFNADPSMIRVGDTYYIANSTFEWWPGVRLHESKDMVHWRLLPSPLNRRSQIDMRGNPSSGGVWAPDLSYADGKFWLVYSDVKIVNGAFKDCTNYLVTAEDIRGPWSEPIRINGVGFDASLFHDDDGRKYLVQQTWDFREYNHPFDGITLTEFDVETMRLRPETERTIWRGTDVKLVEGPHLYKINGMYYLFCAEGGTVWTHQEVVARSSTLDAMSFEGSPYDPFISNFDTPRSYLQKQGHGALVDTPSGEWYYASLCARPWHHENESVTDPRGWCTLGRETSIQKVEWTDDGWPVVVGGHGGQRVVEAPQDAIETEAPADHSQHDDFEASQLALDWNTLRVPFDESMGSVGGGTLTLRGQGSLCNLFDLSLVARRWQAFDFDASVGVRFDPTNYRQMAGLTNYYNDLCWSWAFVTWDEKRQCRVIEVAQNDFNTYTSFLRDRAVPVPDDVETVWLRTRVRTQTYGYDYSFDGEQWHDLGVELDAKILSDDYVNQRYGGFFTGAFVGLAAVDLSGYDATAEFVDFDYRELSE
notes: full-length ORF 541 residues, C-terminal His-tag, pET24(+), E. coli BL21(DE3); theoretical mass 61,774 Da, about 62 kDa on SDS-PAGE
Consider B1, for which, in data set [2], the Km (as a rule, the concentration of substrate that gives half-maximal velocity) came out at 15.6 ± 4.2 mM; the kcat (in general, the number of substrate molecules converted per active site and unit of time at saturation) came out at 60.6 ± 10.8 s⁻¹.
